Experimental data: patent US20260166084A1 (INSTITUTE OF CANCER RESEARCH ROYAL CANCER HOSPITAL, published 2026)

Experiments:
[1] = biological target: T1, complex formed between CRBN/DDB1 and iberdomide (UniProt Q96SW2 1-442; Q16531 2-1140, limits assumed); experiment: TR-FRET displacement of Sulfo-Cy5 Aiolos peptide probe from CRBN/DDB1 with 10 uM iberdomide. The figure is told overall for the three IMiDs.
T1 construct: mature; also called CRBN/DDB1 in the presence of iberdomide; CRBN/DDB1 with CC-220
Procedure: (§1) All TR-FRET assays were ran in Black 384-well ProxiPlate Plus (Perkin-Elmer, USA), in a buffer containing 20 mM HEPES pH 8.0, 150 mM NaCl, 0.5 mM TCEP, 0.05% Tween 20 and 0.05% BSA, with a final assay volume of 10 μL. An Echo E550 (Beckman Coulter, USA) acoustic liquid dispenser was used to create final concentration ranges from 82 μM down to 2.05 nM for iTAG1 and 27 μM down to 0.68 nM for iTAG2. […] Finally, IMiDs were added to a final concentration of 10 μM with the Echo. Plates were sealed, centrifuged at 200 g for 1 min and stored overnight at 4° C. The TR-FRET signals were read using a PHERAstar FSX plate reader (BMG Labtech, Germany).

[2] = biological target: T2, complex formed between CRBN/DDB1 and pomalidomide (UniProt Q96SW2 1-442; Q16531 2-1140, limits assumed); experiment: TR-FRET displacement of Sulfo-Cy5 Aiolos peptide probe from CRBN/DDB1 with 10 uM pomalidomide. The figure is told overall for the three IMiDs.
T2 construct: mature; Same proteins as m3 with 10 uM pomalidomide. 'mature' stands for the printed 'WT full length'; also called CRBN/DDB1 in the presence of pomalidomide
Procedure: as §1

[3] = biological target: T3, CRBN/DDB1 protein complex (no IMiD) (UniProt Q96SW2 1-442; Q16531 1-1140, limits assumed); experiment: size exclusion chromatography (Superose 6) with SDS-PAGE of fractions, no iberdomide
T3 construct: As used in the SEC sample without iberdomide; also called CRBN/DDB1 complex
Procedure: Purified CRBN/DDB1 protein complex and iTAG2 protein were mixed together and subjected to SEC in the presence or absence of iberdomide, shown in FIG. 14.
100 μM iberdomide was included in one of the samples and both were incubated on ice for 1 hour, then centrifuged at 21000 g for 10 minutes prior to injection to remove potential aggregates. The Superose 6 column was pre-equilibrated in the same buffer (20 mM HEPES pH 7.0, 200 mM NaCl and 1 mM TCEP) at a flow rate of 0.25 mL/min before injection of 50 μL of each sample.

[4] = biological target: T4, complex formed between CRBN/DDB1 and lenalidomide (UniProt Q96SW2 1-442; Q16531 2-1140, limits assumed); experiment: TR-FRET displacement of Sulfo-Cy5 Aiolos peptide probe from CRBN/DDB1 with 10 uM lenalidomide. The figure is told overall for the three IMiDs.
T4 construct: mature; Same proteins as m3 with 10 uM lenalidomide. 'mature' stands for the printed 'WT full length'; also called CRBN/DDB1 in the presence of lenalidomide
Procedure: as §1

T2 sequence (Q96SW2 whole entry, chain 1 of 2): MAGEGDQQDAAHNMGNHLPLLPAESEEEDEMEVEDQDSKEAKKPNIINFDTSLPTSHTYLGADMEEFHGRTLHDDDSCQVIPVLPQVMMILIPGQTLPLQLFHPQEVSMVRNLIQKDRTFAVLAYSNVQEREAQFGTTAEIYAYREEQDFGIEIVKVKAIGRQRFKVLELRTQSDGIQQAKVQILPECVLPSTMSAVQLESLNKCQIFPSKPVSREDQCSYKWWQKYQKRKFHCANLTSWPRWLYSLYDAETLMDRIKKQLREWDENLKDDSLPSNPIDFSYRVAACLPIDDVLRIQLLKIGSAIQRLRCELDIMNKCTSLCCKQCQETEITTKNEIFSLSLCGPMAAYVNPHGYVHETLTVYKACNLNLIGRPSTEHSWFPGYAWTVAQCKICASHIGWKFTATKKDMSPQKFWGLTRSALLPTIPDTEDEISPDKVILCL
T2 sequence (Q16531 2-1140 limits assumed, chain 2 of 2): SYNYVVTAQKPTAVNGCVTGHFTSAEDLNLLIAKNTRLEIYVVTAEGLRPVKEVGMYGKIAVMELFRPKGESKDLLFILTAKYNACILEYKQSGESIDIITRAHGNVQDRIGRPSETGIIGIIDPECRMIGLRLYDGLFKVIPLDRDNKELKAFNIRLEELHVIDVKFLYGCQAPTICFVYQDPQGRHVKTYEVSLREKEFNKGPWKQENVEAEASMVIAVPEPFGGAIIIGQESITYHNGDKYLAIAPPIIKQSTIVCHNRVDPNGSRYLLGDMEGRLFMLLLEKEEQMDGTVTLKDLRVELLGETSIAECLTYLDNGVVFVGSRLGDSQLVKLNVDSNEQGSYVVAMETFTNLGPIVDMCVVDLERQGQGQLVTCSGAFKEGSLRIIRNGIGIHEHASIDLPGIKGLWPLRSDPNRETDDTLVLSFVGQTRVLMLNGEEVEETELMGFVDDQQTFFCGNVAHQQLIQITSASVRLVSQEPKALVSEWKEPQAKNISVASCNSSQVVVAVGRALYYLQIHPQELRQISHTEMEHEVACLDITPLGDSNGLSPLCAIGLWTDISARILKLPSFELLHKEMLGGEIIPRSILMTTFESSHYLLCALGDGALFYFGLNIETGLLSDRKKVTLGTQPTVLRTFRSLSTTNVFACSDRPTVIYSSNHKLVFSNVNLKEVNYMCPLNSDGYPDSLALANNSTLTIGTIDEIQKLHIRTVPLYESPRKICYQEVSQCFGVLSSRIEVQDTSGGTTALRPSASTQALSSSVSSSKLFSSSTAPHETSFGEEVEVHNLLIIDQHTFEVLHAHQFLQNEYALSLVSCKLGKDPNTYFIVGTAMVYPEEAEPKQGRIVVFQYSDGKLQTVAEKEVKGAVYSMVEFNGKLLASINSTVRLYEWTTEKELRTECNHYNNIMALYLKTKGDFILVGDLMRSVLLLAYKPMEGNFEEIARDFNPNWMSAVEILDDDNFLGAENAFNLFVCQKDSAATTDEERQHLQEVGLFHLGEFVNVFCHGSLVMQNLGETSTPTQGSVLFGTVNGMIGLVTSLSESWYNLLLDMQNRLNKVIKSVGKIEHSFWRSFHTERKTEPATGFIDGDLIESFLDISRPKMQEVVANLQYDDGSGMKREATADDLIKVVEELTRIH
T1 sequence (Q96SW2 whole entry, chain 1 of 2): as the sequence (Q96SW2 whole entry, chain 1 of 2) above
T1 sequence (Q16531 2-1140 limits assumed, chain 2 of 2): as the sequence (Q16531 2-1140 limits assumed, chain 2 of 2) above
T3 sequence (Q96SW2 whole entry, chain 1 of 2): as the sequence (Q96SW2 whole entry, chain 1 of 2) above
T3 sequence (Q16531 whole entry, chain 2 of 2): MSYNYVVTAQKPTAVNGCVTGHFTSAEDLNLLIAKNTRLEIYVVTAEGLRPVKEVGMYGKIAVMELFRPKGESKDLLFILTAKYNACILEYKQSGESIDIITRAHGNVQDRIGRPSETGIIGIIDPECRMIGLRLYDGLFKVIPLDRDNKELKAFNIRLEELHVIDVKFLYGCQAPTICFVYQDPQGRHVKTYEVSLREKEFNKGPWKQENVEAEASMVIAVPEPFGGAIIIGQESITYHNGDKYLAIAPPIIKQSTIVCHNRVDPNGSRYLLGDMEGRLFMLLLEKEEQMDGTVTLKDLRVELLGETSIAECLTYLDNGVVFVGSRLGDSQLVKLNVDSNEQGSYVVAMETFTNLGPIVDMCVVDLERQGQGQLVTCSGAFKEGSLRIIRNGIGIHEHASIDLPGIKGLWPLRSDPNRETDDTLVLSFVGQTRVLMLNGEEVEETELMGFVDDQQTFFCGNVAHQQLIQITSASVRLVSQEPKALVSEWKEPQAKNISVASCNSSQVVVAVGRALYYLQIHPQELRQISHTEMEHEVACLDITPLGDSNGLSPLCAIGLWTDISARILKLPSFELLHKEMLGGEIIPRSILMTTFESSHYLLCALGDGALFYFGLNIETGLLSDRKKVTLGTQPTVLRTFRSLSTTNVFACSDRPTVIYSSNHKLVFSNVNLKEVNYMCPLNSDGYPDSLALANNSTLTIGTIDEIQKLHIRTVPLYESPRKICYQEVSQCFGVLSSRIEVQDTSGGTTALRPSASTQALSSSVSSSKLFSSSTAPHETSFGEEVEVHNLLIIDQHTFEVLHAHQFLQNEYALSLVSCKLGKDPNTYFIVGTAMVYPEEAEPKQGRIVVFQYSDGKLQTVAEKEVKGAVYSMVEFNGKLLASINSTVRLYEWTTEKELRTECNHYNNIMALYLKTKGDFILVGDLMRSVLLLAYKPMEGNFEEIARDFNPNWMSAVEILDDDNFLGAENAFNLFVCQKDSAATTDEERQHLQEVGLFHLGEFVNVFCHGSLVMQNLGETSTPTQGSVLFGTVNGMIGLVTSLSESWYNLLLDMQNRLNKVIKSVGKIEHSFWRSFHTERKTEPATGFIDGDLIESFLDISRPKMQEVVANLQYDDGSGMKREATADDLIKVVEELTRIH
T4 sequence (Q96SW2 whole entry, chain 1 of 2): as the sequence (Q96SW2 whole entry, chain 1 of 2) above
T4 sequence (Q16531 2-1140 limits assumed, chain 2 of 2): as the sequence (Q16531 2-1140 limits assumed, chain 2 of 2) above

B1: iTAG2 (DCD23mut) (designed binder)
chain: PNVLMVHNESHTGEIPLQCEICGFTCEQAGNLLNHIELHSGEIPFKCHLCNYACRRRDAL
notes: Purified iTAG2 protein
For B1, the “fold difference of IC50 against iTAG1” value [1] was roughly 10 fold, the “fold difference of IC50 against iTAG1” value [2] was roughly 10 fold and the binding result [3] was “no binding (tested: CRBN/DDB1 at 15 uM and iTAG2 at 50 uM)”. For the same binder, the “fold difference of IC50 against iTAG1” value [4] was roughly 10 fold.
